{"source": "paper PMC12809912", "about": "(2025)", "parents": {"B1": {"name": "mouse monoclonal antibody clone 1A8 (anti-DEFA5) [modified: Fc glycosylation, mainly the G1F glycoform (intact ESI-MS)] [mouse] / peptide No. 57 of the overlapping library, DEFA5 amino acids 61-75 (ARATCYCRTGRCATR) [human] (parent complex)", "chain 1": "QVQLQQSGAELVRPGASVKMSCKALGYTFFDYEMHWMKQTPVYGLEWIGAIHPGSGDTAYNQKFKGKATLTADKSSNTAYMELSSLTSEDSAVYYCTREGTVVAPFDYWGQGTTLTVSS", "chain 2": "DVLMTQTPLSLPVSLGDQASISCRSSQSIVHSNGNTYLEWYLQKPGQSPKLLINKVSNRFSGVPDRFSGSGSGTDFTLKISRVEAEDLGVYYCFQGSYVPYTFGGGTKLEIK", "chain 3": "ARATCYCRTGRCATR"}}, "data": [{"variants_of": "B1", "test": "indirect ELISA; parent: 2.2; read off a plot", "units": {"response": "OD450nm"}, "values": [{"variant": "chain 3 ARATCYCRTGRCATA", "note": "[chain 3 R15A]", "response": "~2.2"}, {"variant": "chain 3 ARATCACRTGRCATR", "note": "[chain 3 Y6A]", "response": "~1.9"}, {"variant": "chain 3 ARATCYCRTARCATR", "note": "[chain 3 G10A]", "response": "~1.9"}, {"variant": "chain 3 AAATCYCRTGRCATR", "note": "[chain 3 R2A]", "response": "~1.9"}, {"variant": "chain 3 ARATCYCATGRCATR", "note": "[chain 3 R8A]", "response": "~1.8"}, {"variant": "chain 3 ARATCYCRAGRCATR", "note": "[chain 3 T9A]", "response": "~1.7"}, {"variant": "chain 3 ARATAYCRTGRCATR", "note": "[chain 3 C5A]", "response": "~1.9"}, {"variant": "chain 3 ARAACYCRTGRCATR", "note": "[chain 3 T4A]", "response": "~1.9"}, {"variant": "chain 3 ARATCYCRTGRCGTR", "note": "[chain 3 A13G]", "response": "~1.8"}, {"variant": "chain 3 ARATCYCRTGRCAAR", "note": "[chain 3 T14A]", "response": "~1.7"}, {"variant": "chain 3 ARATCYCRTGACATR", "note": "[chain 3 R11A]", "response": "~0.07"}, {"variant": "chain 3 ARGTCYCRTGRCATR", "note": "[chain 3 A3G]", "response": "~1.8"}, {"variant": "chain 3 ARATCYCRTGRAATR", "note": "[chain 3 C12A]", "response": "~0.95"}]}, {"variants_of": "B1", "test": "indirect ELISA; parent: 2.6; read off a plot", "units": {"response": "OD450nm"}, "values": [{"variant": "chain 3 ARATCYCRTGRCATA", "note": "[chain 3 R15A]", "response": "~2.6"}, {"variant": "chain 3 ARATCACRTGRCATR", "note": "[chain 3 Y6A]", "response": "~1.8"}, {"variant": "chain 3 ARATCYCRTARCATR", "note": "[chain 3 G10A]", "response": "~1.9"}, {"variant": "chain 3 AAATCYCRTGRCATR", "note": "[chain 3 R2A]", "response": "~1.9"}, {"variant": "chain 3 ARATCYARTGRCATR", "note": "[chain 3 C7A]", "response": "~1.2"}, {"variant": "chain 3 ARATCYCATGRCATR", "note": "[chain 3 R8A]", "response": "~1.8"}, {"variant": "chain 3 ARATCYCRAGRCATR", "note": "[chain 3 T9A]", "response": "~1.9"}, {"variant": "chain 3 ARATAYCRTGRCATR", "note": "[chain 3 C5A]", "response": "~2"}, {"variant": "chain 3 ARAACYCRTGRCATR", "note": "[chain 3 T4A]", "response": "~1.9"}, {"variant": "chain 3 ARATCYCRTGRCGTR", "note": "[chain 3 A13G]", "response": "~1.8"}, {"variant": "chain 3 ARATCYCRTGRCAAR", "note": "[chain 3 T14A]", "response": "~2"}, {"variant": "chain 3 ARATCYCRTGACATR", "note": "[chain 3 R11A]", "response": "~0.07"}, {"variant": "chain 3 ARGTCYCRTGRCATR", "note": "[chain 3 A3G]", "response": "~1.8"}, {"variant": "chain 3 ARATCYCRTGRAATR", "note": "[chain 3 C12A]", "response": "~1.1"}]}]}
